This assay has as its target human BCMA on cells (human) (UniProt Q02223). The assay is described as follows: cell-based or functional assay.

Chain of human BCMA on cells (human) (Q02223 whole entry): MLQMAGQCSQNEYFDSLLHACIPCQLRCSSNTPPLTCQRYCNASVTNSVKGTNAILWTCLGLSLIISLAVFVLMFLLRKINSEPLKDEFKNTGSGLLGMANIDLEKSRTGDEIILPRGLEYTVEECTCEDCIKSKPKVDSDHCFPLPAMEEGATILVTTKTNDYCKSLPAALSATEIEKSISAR

B1: CAR with OX40-CD3z cytoplasmic domain of SEQ ID: 105 (protein, part only; not given: anti-BCMA scFv, hinge, transmembrane, part only)
chain, part: RRDQRLPPDAHKPPGGGSFRTPIQEEQADAHSTLAKIRVKFSRSADAPAYQQGQNQLYNELNLGRREEYDVLDKRRGRDPEMGGKPRRKNPQEGLYNELQKDKMAEAYSEIGMKGERRRGKGHDGLYQGLSTATKDTYDALHMQALPPR
For the molecule B1, the Killing (% killed), Effector:target ratio of 1:10 was 46%.

The values are drawn from patent US20220089678A1.
